Source: patent US9976134B2, “Thermolysin variants” (Danisco US Inc., priority 2007, dated 2018)
Positions count from the first letter of the chain named. Names may count otherwise.

B1: Y151D: single-substitution thermolysin variant (SEQ ID NO:3 numbering) (protein, listed as Geobacillus caldoproteolyticus)
chain: ITGTSTVGVGRGVLGDQKNINTTYSTYYYLQDNTRGNGIFTYDAKYRTTLPGSLWADADNQFFASYDAPAVDAHYYAGVTYDYYKNVHNRLSYDGNNAAIRSSVHYSQGYNNAFWNGSQMVYGDGDGQTFIPLSGGIDVVAHELTHAVTDDTAGLIYQNESGAINEAISDIFGTLVEFYANKNPDWEIGEDVYTPGISGDSLRSMSDPAKYGDPDHYSKRYTGTQDNGGVHINSGIINKAAYLISQGGTHYGVSVVGIGRDKLGKIFYRALTQYLTPTSNFSQLRAAAVQSATDLYGSTSQEVASVKQAFDAVGVK
B2: Q128C: single-substitution thermolysin variant (SEQ ID NO:3 numbering) (protein, listed as Geobacillus caldoproteolyticus)
chain: B1 chain with Q128C, D151Y
B3: Y151S: single-substitution thermolysin variant (SEQ ID NO:3 numbering) (protein, listed as Geobacillus caldoproteolyticus)
chain: B1 chain with D151S
B4: S065V: single-substitution thermolysin variant (SEQ ID NO:3 numbering) (protein, listed as Geobacillus caldoproteolyticus)
chain: B1 chain with S65V, D151Y
B5: T006C: single-substitution thermolysin variant (SEQ ID NO:3 numbering) (protein, listed as Geobacillus caldoproteolyticus)
chain: B1 chain with T6C, D151Y
B6: S065C: single-substitution thermolysin variant (SEQ ID NO:3 numbering) (protein, listed as Geobacillus caldoproteolyticus)
chain: B1 chain with S65C, D151Y
B7: T049D: single-substitution thermolysin variant (SEQ ID NO:3 numbering) (protein, listed as Geobacillus caldoproteolyticus)
chain: B1 chain with T49D, D151Y
B8: Y151C: single-substitution thermolysin variant (SEQ ID NO:3 numbering) (protein, listed as Geobacillus caldoproteolyticus)
chain: B1 chain with D151C
B9: A056C: single-substitution thermolysin variant (SEQ ID NO:3 numbering) (protein, listed as Geobacillus caldoproteolyticus)
chain: B1 chain with A56C, D151Y
B10: S065E: single-substitution thermolysin variant (SEQ ID NO:3 numbering) (protein, listed as Geobacillus caldoproteolyticus)
chain: B1 chain with S65E, D151Y
B11: T049S: single-substitution thermolysin variant (SEQ ID NO:3 numbering) (protein, listed as Geobacillus caldoproteolyticus)
chain: B1 chain with T49S, D151Y
B12: Q128T: single-substitution thermolysin variant (SEQ ID NO:3 numbering) (protein, listed as Geobacillus caldoproteolyticus)
chain: B1 chain with Q128T, D151Y
B13: Y151A: single-substitution thermolysin variant (SEQ ID NO:3 numbering) (protein, listed as Geobacillus caldoproteolyticus)
chain: B1 chain with D151A

Assay: not given
Settings: TIDE 2X 0.78 g/l, 6 gpg, pH 8.2, 30 min at 20°C, A405; variant vs wild-type thermolysin at same protein concentration
Experimental: Thermolysin containing protease samples were obtained from filtered broth of cultures grown in microtiter plates for 3 days at 37° C. with shaking at 280 rpm under humidified aeration.
• Thermolysin containing culture supernatants (˜100-200 μg protein per ml) • TIDE® 2× (nil enzymes) detergent (P&G) • Dilution Buffer (10 mM NaCl, 0.1 mM CaCl2, 0.005% TWEEN®-80) The equipment used was a Biomek FX Robot (Beckman Coulter), a SpectraMAX MTP Reader (type 340; Molecular Devices), and an iEMS incubator/shaker (Thermo/Labsystems). MTPs were obtained from Costar (type 9017). TIDE® 2× Liquid Detergent Preparation (US Conditions):
Milli-Q water was adjusted to 6 gpg water hardness using a (Ca/Mg 3:1) hardness stock solution (282.3 g/L CaCl2.2H20, 130.1 g/L MgCl2.6H2O), 0.78 g/1 detergent TIDE® 2× was added, and the detergent solution was stirred vigorously for at least 15 minutes. Then, 5 mM HEPES was added and the pH adjusted to 8.2.
Microswatches of ¼ inch circular diameter were obtained from CFT (Vlaardingen, The Netherlands).
Two microswatches were placed vertically into each well of a 96-well microtiter plate to expose the whole surface area (i.e., not flat on the bottom of the well).
The incubator was set to 20° C. The filtered culture broth samples were tested at an appropriate concentration by dilution with a mixture of 10 mM NaCl, 0.1 mM CaCl2, 0.005% TWEEN®-80 solution. The detergent solution was prepared as described above. Then, 190 μl of detergent solution were added to each well of the MTP, containing microswatches. To this mixture, 10 μl of diluted enzyme solution were added to each well (to provide a total volume of 200 μl/well). The MTP was covered with a plate seal and placed in an incubator for 30 minutes at 20° C., with agitation at 1400 rpm (iEMS incubator). Following incubation under the appropriate conditions, 100 μl of solution from each well was removed and placed into a new MTP. Subsequently this MTP, containing 100 μl of solution/well, was read at 405 nm in a MTP-Reader. Blank controls, containing 2 microswatches/well and detergent, without the addition of thermolysin containing samples, were also included in the test.
The observed absorbance value was corrected for the blank value (obtained after incubation of microswatches in the absence of added enzyme). The resulting absorbance was a measure for the hydrolytic activity. For each sample (thermolysin or a variant) the performance index (PI) was calculated. The performance index is a comparison of the performance of the variant (actual value) and the standard thermolysin enzyme (theoretical value) at the same protein concentration. In addition, the theoretical values were calculated, using the parameters of the Langmuir equation of the standard enzyme.
C. Stability Assay in the Presence of Detergent
In this example, experiments were conducted to determine the stain removal performance of various singly substituted thermolysin (also referred to herein as Proteinase-T or PrT) variants. As described in Example 1, the stain cleaning performance of thermolysin variants was done utilizing a blood/milk/ink (BMI) microswatch assay. Briefly the cleaning performance of chosen single-substitution thermolysin variants was assessed in a TIDE® 2× microswatch assay.
In the case of B1, the “PI (performance index), stain removal” value is reported as 1.08.

Assay: Stability assay in 25% TIDE 2X detergent with DTPA (residual Abz-AGLA-Nba protease activity)
Assay type: physicochemical
Settings: 60 min at 32°C; variant residual AGLA activity divided by wild-type residual activity
Experimental: (§1) The stability of thermolysin and variants thereof was measured after incubation under defined conditions in the presence of 25% TIDE® 2× detergent. The initial and residual activity was determined.
(§2) MTPs were obtained from Costar (type 9017) and from Greiner (black plate, type 655076). Test Method Unstressed Conditions:
(§3) First, 20 μl thermolysin containing culture supernatant was diluted with 180 μl MES assay buffer. Then, 20 μl diluted supernatant was diluted further with 180 μl MES assay buffer. Subsequently 10 μl of this dilution was transferred into 190 μl AGLA-substrate solution in a pre-warmed plate (Greiner 655076) at 25° C. Any air bubbles present were blown away and the plate was measured according to the AGLA protease assay protocol described below.
(§4) First, 20 μl of culture supernatant was diluted with 180 μl 27.5% TIDE®+detergent solution and placed in the iEMS shaker. The plate covered with a plate seal was incubated for a total of 60 minutes at 32° C. at 900 rpm. In addition, 20 μl of culture supernatant was diluted with 180 μl 27.5% TIDE®−solution and placed in the iEMS shaker. This plate covered with a plate seal was incubated for a total of 180 minutes at 50° C. at 900 rpm.
(§5) Subsequently after the respective incubations, 20 μl of either of these solutions were diluted with 180 μl MES assay buffer and 10 μl of this dilution were diluted with 190 μl AGLA-substrate solution in a pre-warmed plate (Greiner 655076) at 25° C.
(§6) Fluorescence measurements were taken at excitation of 350 nm and emission of 420 nm. The spectrofluorometer software calculated the reaction rates (=slope) of the increase in fluorescence for each well to a linearly regressed line of (milli-) RFU/min. The ratio of the residual and initial AGLA activity was used to express the 25% TIDE® 2× stability as follows: Percentage of residual activity=[slope of stressed]*100/[slope of unstressed]
(§7) For each sample (thermolysin and variants thereof) the performance index was calculated by dividing the residual activity of the variant by the residual activity of thermolysin. The performance index compared the stability of the variant and the standard thermolysin enzyme (e.g., wild type or parental enzyme), determined under the same conditions.
(§8) In these experiments, the liberation of Abz-AG by protease cleavage of Abz-AGLA-Nba was monitored by fluorescence spectrometry (Ex. 350/Em. 420). The rate of appearance of Abz-AG was a measure of proteolytic activity.
(§9) The Abz-AGLA-Nba assay solution was prepared by adding 1 ml of the Abz-AGLA-Nba stock to 19 ml MES substrate buffer and mixed well for at least 2 minutes. Subsequently the thermolysin or variants thereof containing culture supernatants were diluted with MES assay buffer to a concentration of 1-6 μg protein per ml.
(§10) The assay was performed by adding 10 μl of diluted protease solution to each well, followed by the addition of 190 μl Abz-AGLA-Nba assay solution that was pre-equilibrated for at least 15 minutes at 25° C. The solutions were vigorously mixed, and the liberation of Abz-AG by protease cleavage of Abz-AGLA-Nba was monitored by fluorescence spectrometry at 25° C. in kinetic mode with excitation set at 350 nm and emission set at 420 nm. The rate of appearance of Abz-AG was a measure of proteolytic activity in the samples. The protease activity was expressed as RFU (relative fluorescence units·min^−1).
(§11) As described in Example 1, the stability of thermolysin variants was measured by determining the AGLA activity before and after incubation in the presence of TIDE® 2× heavy duty liquid (HDL) detergent at an elevated temperature. The tables contain the relative stability values compared to wild-type thermolysin, which is the quotient of the variant residual activity divided by the wild-type residual activity. A value greater than one indicates higher stability in the presence of detergent. […]
For B1, the “PI (relative stability), 25% TIDE 2X with DTPA” value was 1.12. In the case of B2, the “PI (relative stability), 25% TIDE 2X with DTPA” value is reported as 1.01. In the case of B3, the “PI (relative stability), 25% TIDE 2X with DTPA” value is reported as 1.23. In the case of B4, the “PI (relative stability), 25% TIDE 2X with DTPA” value is reported as 1.08. With B5 the “PI (relative stability), 25% TIDE 2X with DTPA” value was 1.03. In the case of B6, the “PI (relative stability), 25% TIDE 2X with DTPA” value is reported as 1.05. For B7, the “PI (relative stability), 25% TIDE 2X with DTPA” value was 1.05. For B8, the “PI (relative stability), 25% TIDE 2X with DTPA” value was 1.25. In the case of B9, the “PI (relative stability), 25% TIDE 2X with DTPA” value is reported as 1.01. With B10 the “PI (relative stability), 25% TIDE 2X with DTPA” value was 1.08. For B11, the “PI (relative stability), 25% TIDE 2X with DTPA” value was 1.08. For B12, the “PI (relative stability), 25% TIDE 2X with DTPA” value was 1.18. For B13, the “PI (relative stability), 25% TIDE 2X with DTPA” value was 1.15.

Assay: Stability assay in 25% TIDE 2X detergent without DTPA (residual Abz-AGLA-Nba protease activity)
Assay type: physicochemical
Settings: 180 min at 50°C; variant residual AGLA activity divided by wild-type residual activity
Experimental: as §1, §2, §3, §4, §5, §6, §7, §8, §9, §10, §11
With B2 the “PI (relative stability), 25% TIDE 2X without DTPA” value was 1.05. With B3 the “PI (relative stability), 25% TIDE 2X without DTPA” value was 1.17. In the case of B4, the “PI (relative stability), 25% TIDE 2X without DTPA” value is reported as 1.08. For B5, the “PI (relative stability), 25% TIDE 2X without DTPA” value was 1.07. With B6 the “PI (relative stability), 25% TIDE 2X without DTPA” value was 1.14. For B7, the “PI (relative stability), 25% TIDE 2X without DTPA” value was 1.28. In the case of B8, the “PI (relative stability), 25% TIDE 2X without DTPA” value is reported as 1.09. In the case of B9, the “PI (relative stability), 25% TIDE 2X without DTPA” value is reported as 1.19. For B10, the “PI (relative stability), 25% TIDE 2X without DTPA” value was 1.34. With B11 the “PI (relative stability), 25% TIDE 2X without DTPA” value was 1.26. With B12 the “PI (relative stability), 25% TIDE 2X without DTPA” value was 1.15. For B13, the “PI (relative stability), 25% TIDE 2X without DTPA” value was 1.24.
